Common to all, as to test: cell-based or functional assay
One test addresses T1, human GIP receptor (human, UniProt P48546 22-466).
T1 sequence (looked up): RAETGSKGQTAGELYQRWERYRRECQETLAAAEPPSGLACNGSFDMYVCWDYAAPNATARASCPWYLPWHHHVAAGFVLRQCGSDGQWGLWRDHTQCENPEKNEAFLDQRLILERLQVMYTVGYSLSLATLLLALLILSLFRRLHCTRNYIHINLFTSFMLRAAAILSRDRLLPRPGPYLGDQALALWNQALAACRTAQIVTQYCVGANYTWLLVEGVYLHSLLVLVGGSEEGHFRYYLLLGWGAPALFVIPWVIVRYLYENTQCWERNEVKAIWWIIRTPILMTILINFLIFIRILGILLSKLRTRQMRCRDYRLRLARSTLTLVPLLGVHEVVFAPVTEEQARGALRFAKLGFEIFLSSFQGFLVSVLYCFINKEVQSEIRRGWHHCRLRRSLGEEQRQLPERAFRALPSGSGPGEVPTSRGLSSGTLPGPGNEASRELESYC

The target in the next test is human glucagon receptor (human, UniProt P47871 26-477).
human glucagon receptor, sequence (P47871 26-477): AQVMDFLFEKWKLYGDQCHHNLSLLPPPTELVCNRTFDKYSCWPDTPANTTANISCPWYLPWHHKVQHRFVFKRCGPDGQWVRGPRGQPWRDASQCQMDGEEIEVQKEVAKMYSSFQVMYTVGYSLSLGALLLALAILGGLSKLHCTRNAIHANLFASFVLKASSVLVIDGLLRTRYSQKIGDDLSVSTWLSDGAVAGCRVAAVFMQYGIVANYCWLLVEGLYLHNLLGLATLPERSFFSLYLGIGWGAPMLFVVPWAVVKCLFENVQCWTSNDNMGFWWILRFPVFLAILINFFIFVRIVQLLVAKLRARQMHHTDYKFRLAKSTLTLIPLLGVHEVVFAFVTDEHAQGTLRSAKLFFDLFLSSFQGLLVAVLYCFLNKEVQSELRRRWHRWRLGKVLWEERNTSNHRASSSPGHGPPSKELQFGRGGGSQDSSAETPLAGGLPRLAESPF
The next test deals with human GLP-1 receptor (human, UniProt P43220 24-463).

*1 amine or outer side, *2 acyl side, *3 side chain or, on linkers, in order; H or OH if unused. Where no end group is shown, it is not given here. Side-chain parts run from the residue outwards. [ ]: non-standard residue; d: D form. The star is where a group is joined. γGlu = O=C(O)[C@H](CCC(=O)[*:2])N[*:1]; Palmitoyl = CCCCCCCCCCCCCCCC(=O)*; Aib = CC(C)(N)C(=O)O

B1: SEQ ID NO: 29 (peptide)
peptide: Y[Aib]QGTFTSDLSIQK([γGlu-Palmitoyl])DSRAAQEFIEWLKAGGPSSGAPPPS-NH2
modifications: N-terminus assumed
SMILES: CCCCCCCCCCCCCCCC(=O)N[C@@H](CCC(=O)NCCCC[C@H](NC(=O)[C@H](CCC(N)=O)NC(=O)[C@@H](NC(=O)[C@H](CO)NC(=O)[C@H](CC(C)C)NC(=O)[C@H](CC(=O)O)NC(=O)[C@H](CO)NC(=O)[C@@H](NC(=O)[C@H](Cc1ccccc1)NC(=O)[C@@H](NC(=O)CNC(=O)[C@H](CCC(N)=O)NC(=O)C(C)(C)NC(=O)[C@@H](N)Cc1ccc(O)cc1)[C@@H](C)O)[C@@H](C)O)[C@@H](C)CC)C(=O)N[C@@H](CC(=O)O)C(=O)N[C@@H](CO)C(=O)N[C@@H](CCCNC(=N)N)C(=O)N[C@@H](C)C(=O)N[C@@H](C)C(=O)N[C@@H](CCC(N)=O)C(=O)N[C@@H](CCC(=O)O)C(=O)N[C@@H](Cc1ccccc1)C(=O)N[C@H](C(=O)N[C@@H](CCC(=O)O)C(=O)N[C@@H](Cc1c[nH]c2ccccc12)C(=O)N[C@@H](CC(C)C)C(=O)N[C@@H](CCCCN)C(=O)N[C@@H](C)C(=O)NCC(=O)NCC(=O)N1CCC[C@H]1C(=O)N[C@@H](CO)C(=O)N[C@@H](CO)C(=O)NCC(=O)N[C@@H](C)C(=O)N1CCC[C@H]1C(=O)N1CCC[C@H]1C(=O)N1CCC[C@H]1C(=O)N[C@@H](CO)C(N)=O)[C@@H](C)CC)C(=O)O
As to B1, in the test with human GIP receptor, the “EC50 hGIP R [pM]” value worked out at 127 pM. In the test with human glucagon receptor, the “EC50 hGLUC R [pM]” value was found to be 46.8 pM. Also, the “EC50 hGLP-1 R [pM]” value with human GLP-1 receptor worked out at 7 pM.

B2: SEQ ID NO: 28 (peptide)
peptide: Y[Aib]QGTFTSDLSIQK([γGlu-Palmitoyl])DKRAAQDFIEWLKAGGPSSGAPPPS-NH2
modifications: N-terminus assumed
SMILES: CCCCCCCCCCCCCCCC(=O)N[C@@H](CCC(=O)NCCCC[C@H](NC(=O)[C@H](CCC(N)=O)NC(=O)[C@@H](NC(=O)[C@H](CO)NC(=O)[C@H](CC(C)C)NC(=O)[C@H](CC(=O)O)NC(=O)[C@H](CO)NC(=O)[C@@H](NC(=O)[C@H](Cc1ccccc1)NC(=O)[C@@H](NC(=O)CNC(=O)[C@H](CCC(N)=O)NC(=O)C(C)(C)NC(=O)[C@@H](N)Cc1ccc(O)cc1)[C@@H](C)O)[C@@H](C)O)[C@@H](C)CC)C(=O)N[C@@H](CC(=O)O)C(=O)N[C@@H](CCCCN)C(=O)N[C@@H](CCCNC(=N)N)C(=O)N[C@@H](C)C(=O)N[C@@H](C)C(=O)N[C@@H](CCC(N)=O)C(=O)N[C@@H](CC(=O)O)C(=O)N[C@@H](Cc1ccccc1)C(=O)N[C@H](C(=O)N[C@@H](CCC(=O)O)C(=O)N[C@@H](Cc1c[nH]c2ccccc12)C(=O)N[C@@H](CC(C)C)C(=O)N[C@@H](CCCCN)C(=O)N[C@@H](C)C(=O)NCC(=O)NCC(=O)N1CCC[C@H]1C(=O)N[C@@H](CO)C(=O)N[C@@H](CO)C(=O)NCC(=O)N[C@@H](C)C(=O)N1CCC[C@H]1C(=O)N1CCC[C@H]1C(=O)N1CCC[C@H]1C(=O)N[C@@H](CO)C(N)=O)[C@@H](C)CC)C(=O)O
As to B2, the “EC50 hGIP R [pM]” value with human GIP receptor stood at 10.9 pM. In addition, the “EC50 hGLUC R [pM]” value in the test with human glucagon receptor stood at 9.9 pM. Also, the “EC50 hGLP-1 R [pM]” value with human GLP-1 receptor amounted to 3.2 pM.

B3: SEQ ID NO: 30 (peptide)
peptide: Y[Aib]QGTFTSDLSIQK([γGlu-Palmitoyl])DSRAA[Aib]DFIEWLKAGGPSSGAPPPS-NH2
modifications: N-terminus assumed
SMILES: CCCCCCCCCCCCCCCC(=O)N[C@@H](CCC(=O)NCCCC[C@H](NC(=O)[C@H](CCC(N)=O)NC(=O)[C@@H](NC(=O)[C@H](CO)NC(=O)[C@H](CC(C)C)NC(=O)[C@H](CC(=O)O)NC(=O)[C@H](CO)NC(=O)[C@@H](NC(=O)[C@H](Cc1ccccc1)NC(=O)[C@@H](NC(=O)CNC(=O)[C@H](CCC(N)=O)NC(=O)C(C)(C)NC(=O)[C@@H](N)Cc1ccc(O)cc1)[C@@H](C)O)[C@@H](C)O)[C@@H](C)CC)C(=O)N[C@@H](CC(=O)O)C(=O)N[C@@H](CO)C(=O)N[C@@H](CCCNC(=N)N)C(=O)N[C@@H](C)C(=O)N[C@@H](C)C(=O)NC(C)(C)C(=O)N[C@@H](CC(=O)O)C(=O)N[C@@H](Cc1ccccc1)C(=O)N[C@H](C(=O)N[C@@H](CCC(=O)O)C(=O)N[C@@H](Cc1c[nH]c2ccccc12)C(=O)N[C@@H](CC(C)C)C(=O)N[C@@H](CCCCN)C(=O)N[C@@H](C)C(=O)NCC(=O)NCC(=O)N1CCC[C@H]1C(=O)N[C@@H](CO)C(=O)N[C@@H](CO)C(=O)NCC(=O)N[C@@H](C)C(=O)N1CCC[C@H]1C(=O)N1CCC[C@H]1C(=O)N1CCC[C@H]1C(=O)N[C@@H](CO)C(N)=O)[C@@H](C)CC)C(=O)O
B3: the “EC50 hGIP R [pM]” value with human GIP receptor was 22.1 pM. Further, the “EC50 hGLUC R [pM]” value with human glucagon receptor was found to be 226 pM. In addition, in the test with human GLP-1 receptor, the “EC50 hGLP-1 R [pM]” value worked out at 12 pM.

B4: SEQ ID NO: 27 (peptide)
peptide: Y[Aib]EGTFTSDLSIQK([γGlu-Palmitoyl])EKRAA[Aib]DFIEWLKNTGPSSGAPPPS-NH2
modifications: N-terminus assumed
SMILES: CCCCCCCCCCCCCCCC(=O)N[C@@H](CCC(=O)NCCCC[C@H](NC(=O)[C@H](CCC(N)=O)NC(=O)[C@@H](NC(=O)[C@H](CO)NC(=O)[C@H](CC(C)C)NC(=O)[C@H](CC(=O)O)NC(=O)[C@H](CO)NC(=O)[C@@H](NC(=O)[C@H](Cc1ccccc1)NC(=O)[C@@H](NC(=O)CNC(=O)[C@H](CCC(=O)O)NC(=O)C(C)(C)NC(=O)[C@@H](N)Cc1ccc(O)cc1)[C@@H](C)O)[C@@H](C)O)[C@@H](C)CC)C(=O)N[C@@H](CCC(=O)O)C(=O)N[C@@H](CCCCN)C(=O)N[C@@H](CCCNC(=N)N)C(=O)N[C@@H](C)C(=O)N[C@@H](C)C(=O)NC(C)(C)C(=O)N[C@@H](CC(=O)O)C(=O)N[C@@H](Cc1ccccc1)C(=O)N[C@H](C(=O)N[C@@H](CCC(=O)O)C(=O)N[C@@H](Cc1c[nH]c2ccccc12)C(=O)N[C@@H](CC(C)C)C(=O)N[C@@H](CCCCN)C(=O)N[C@@H](CC(N)=O)C(=O)N[C@H](C(=O)NCC(=O)N1CCC[C@H]1C(=O)N[C@@H](CO)C(=O)N[C@@H](CO)C(=O)NCC(=O)N[C@@H](C)C(=O)N1CCC[C@H]1C(=O)N1CCC[C@H]1C(=O)N1CCC[C@H]1C(=O)N[C@@H](CO)C(N)=O)[C@@H](C)O)[C@@H](C)CC)C(=O)O
For B4, the “EC50 hGIP R [pM]” value with human GIP receptor was determined as 6.7 pM. The “EC50 hGLUC R [pM]” value with human glucagon receptor is 6390 pM. For the same molecule, in the test with human GLP-1 receptor, the “EC50 hGLP-1 R [pM]” value was determined as 4 pM.

These data come from patent US20140206609A1 (Sanofi, published 2014).
